Assay results: patent US20040152193A1 (LUDWIG INSTITUTE FOR CANCER RESEARCH, published 2004)

What was measured:
HLA-A*0201 [1] = target: HLA-A*0201 (human); test: cell-based or functional assay
HLA-A*0201 [2] = target: HLA-A*0201 (human); test: cell-based or functional assay; remark: listed apart in the source

| Binder | Competitor [µM] 50% (HLA-A*0201 [1]) [µM] | Relative competitor activity (HLA-A*0201 [1]) | Relative Competitor Activity, Exp3 (HLA-A*0201 [2]) |
| --- | --- | --- | --- |
| EVDPIGHLY [MAGE-3 TRAP 168-176 peptide EVDPIGHLY] | > 100 | < 0.6 ratio to SEQ ID NO: 2 |  |
| ILTVILGVL [Melan-A 32-40 nonapeptide ILTVILGVL] |  |  | 2 ratio to SEQ ID NO: 2 |
